Data from patent publication US20090203766, “vWF aptamer formulations and methods for use” (Archemix Corp., published 2009).

Tests used:
[1] = molecular target: von Willebrand factor (vWF) (Homo sapiens, UniProt P04275 P04275:764-2813); test: filter; text gives value as affinity of ARC1779 for vWF; PBS, 0.1 mg/ml BSA, room temperature 30 min; conditions: label: 5'-32P
Description: For binding assays, the oligonucleotide core of ARC1779 was synthesized with a 5′-terminal hydroxyl moiety instead of a 5′ hexylamine and 20 kDa PEG and subsequently 5′-end labeled with γ-³²P ATP using T4 polynucleotide kinase (New England BioLabs, Beverly, Mass.). Aptamer was incubated at room temperature for 30 minutes in PBS containing 0.1 mg/ml BSA (as a specificity control) and increasing concentrations of human VWF. Bound complexes were separated from free DNA using an acrylic mini-dot blot apparatus (Schleicher and Schuell, Keene, N.H.) and a membrane sandwich (top to bottom) of Protran BA85 0.45 μm Nitrocellulose Membrane (Schleicher and Schuell, Keene, N.H.), Hybond P Nylon Membrane (Amersham, Piscataway, N.J.), and 3mM filter paper (Whatman, Florham Park, N.J.) all pre-wet with Dulbecco's PBS. Radioactivity associated with protein:DNA complexes (nitrocellulose) and free DNA (nylon) was quantified on a Storm 860 Phosphorimager (Molecular Dynamics/Amersham, Piscataway, N.J.). Binding constants were determined by fitting the fraction of aptamer bound as a function of the concentration of vWF.

[2] = molecular target: von Willebrand factor (vWF), A1 domain sites in plasma/blood (Homo sapiens, UniProt P04275 P04275:764-2813); test: free vWF A1 sites activity ELISA, plasma after dosing of healthy volunteers, Emax fit; 0.22 ug/mL; EC90 151 nM; conditions: protein: extract
Chain of von Willebrand factor (vWF), A1 domain sites in plasma/blood (P04275 764-2813, one chain of several): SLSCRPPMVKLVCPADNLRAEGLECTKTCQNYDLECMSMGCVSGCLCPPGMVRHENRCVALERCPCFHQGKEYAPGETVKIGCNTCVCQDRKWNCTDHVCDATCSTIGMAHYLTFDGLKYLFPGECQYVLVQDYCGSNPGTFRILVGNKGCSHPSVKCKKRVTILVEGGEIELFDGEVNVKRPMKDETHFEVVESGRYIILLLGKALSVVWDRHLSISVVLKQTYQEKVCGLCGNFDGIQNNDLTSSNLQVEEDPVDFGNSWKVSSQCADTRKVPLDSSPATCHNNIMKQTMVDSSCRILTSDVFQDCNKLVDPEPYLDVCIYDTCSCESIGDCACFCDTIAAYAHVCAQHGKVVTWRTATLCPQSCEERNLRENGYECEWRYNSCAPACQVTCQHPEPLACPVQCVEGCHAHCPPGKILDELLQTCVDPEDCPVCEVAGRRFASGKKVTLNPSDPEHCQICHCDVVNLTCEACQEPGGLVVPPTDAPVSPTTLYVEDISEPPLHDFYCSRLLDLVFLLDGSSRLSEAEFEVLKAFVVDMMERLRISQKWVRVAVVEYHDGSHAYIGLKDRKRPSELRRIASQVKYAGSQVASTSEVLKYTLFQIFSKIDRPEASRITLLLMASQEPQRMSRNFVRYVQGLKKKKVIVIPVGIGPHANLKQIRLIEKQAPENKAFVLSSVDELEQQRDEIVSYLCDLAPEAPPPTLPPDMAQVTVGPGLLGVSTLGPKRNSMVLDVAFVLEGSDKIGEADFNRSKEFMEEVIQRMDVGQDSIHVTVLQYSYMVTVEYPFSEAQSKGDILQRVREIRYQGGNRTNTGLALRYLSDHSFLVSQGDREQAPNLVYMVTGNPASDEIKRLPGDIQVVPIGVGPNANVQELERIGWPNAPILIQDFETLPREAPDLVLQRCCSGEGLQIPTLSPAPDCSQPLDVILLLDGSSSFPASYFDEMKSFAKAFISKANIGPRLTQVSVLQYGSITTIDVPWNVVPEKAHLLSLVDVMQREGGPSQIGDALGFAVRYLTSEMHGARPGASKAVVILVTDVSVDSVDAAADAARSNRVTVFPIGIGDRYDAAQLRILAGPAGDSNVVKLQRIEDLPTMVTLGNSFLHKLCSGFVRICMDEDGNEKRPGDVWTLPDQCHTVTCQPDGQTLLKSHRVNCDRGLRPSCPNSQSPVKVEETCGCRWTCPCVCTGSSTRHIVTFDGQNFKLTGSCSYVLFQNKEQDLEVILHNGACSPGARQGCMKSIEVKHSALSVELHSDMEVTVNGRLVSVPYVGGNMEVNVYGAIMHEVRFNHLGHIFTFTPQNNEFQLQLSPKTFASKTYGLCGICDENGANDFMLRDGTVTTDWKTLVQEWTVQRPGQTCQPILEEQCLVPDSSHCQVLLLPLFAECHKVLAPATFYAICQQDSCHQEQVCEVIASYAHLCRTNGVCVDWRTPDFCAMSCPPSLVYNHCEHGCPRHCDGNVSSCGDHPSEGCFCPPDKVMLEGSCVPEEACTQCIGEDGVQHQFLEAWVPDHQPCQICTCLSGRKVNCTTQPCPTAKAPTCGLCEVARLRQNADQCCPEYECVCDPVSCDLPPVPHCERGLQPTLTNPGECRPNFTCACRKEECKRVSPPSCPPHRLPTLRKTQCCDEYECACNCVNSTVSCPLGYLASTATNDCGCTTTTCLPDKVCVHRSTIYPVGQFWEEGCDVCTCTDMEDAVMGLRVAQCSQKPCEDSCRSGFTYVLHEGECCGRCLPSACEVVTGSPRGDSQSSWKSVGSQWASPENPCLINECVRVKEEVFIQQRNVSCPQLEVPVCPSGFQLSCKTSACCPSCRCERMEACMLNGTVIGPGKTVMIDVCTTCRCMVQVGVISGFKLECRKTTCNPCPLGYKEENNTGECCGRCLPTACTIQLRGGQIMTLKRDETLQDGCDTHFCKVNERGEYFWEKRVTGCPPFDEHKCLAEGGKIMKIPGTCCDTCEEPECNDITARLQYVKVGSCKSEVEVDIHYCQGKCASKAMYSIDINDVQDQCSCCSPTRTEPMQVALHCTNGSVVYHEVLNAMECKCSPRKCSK

Chain of von Willebrand factor (vWF) (P04275 764-2813, one chain of several): as above

Row | Binder | Kd [1] | EC50 [2]
1 | GCGUGCAGUGCCUUCGGCCGTGCGGTGCCUCCGUCACGC (mixed, same 2'-OMe/deoxy/PS/3'-inverted dT pattern as ARC1779, 5'-OH instead of hexylamine-PEG) [ARC1779 oligonucleotide core (no PEG)] | ~2 nM | 
2 | GCGUGCAGUGCCUUCGGCCGTGCGGTGCCUCCGUCACGC (mixed, mGmCmGmUdGdCdAmGmUmGmCmCmUmUmCmGmGmCdCmG-s-dTmGdCdGdGdTmGmCdCmUdCdCmGmUdCmAmCmGmC-3T (m 2'-OMe; d deoxy; s PS; 3T inverted dT), 5'-20 kDa PEG) [ARC1779] |  | 17 nM
